Experiment in all cases: cryo-EM structure
Assay [1] has as its target microtubules prepared from porcine brain tubulin (porcine) (UniProt P02550).
For assay [2] the target is unchanged. This is another data set of the same source.
The target is the same in assay [3]. This is another data set of the same source.

Read-outs that look alike come from different tables or passages of the source.

UniProt P02550, sequence (P02550 whole entry, chain 1 of 2): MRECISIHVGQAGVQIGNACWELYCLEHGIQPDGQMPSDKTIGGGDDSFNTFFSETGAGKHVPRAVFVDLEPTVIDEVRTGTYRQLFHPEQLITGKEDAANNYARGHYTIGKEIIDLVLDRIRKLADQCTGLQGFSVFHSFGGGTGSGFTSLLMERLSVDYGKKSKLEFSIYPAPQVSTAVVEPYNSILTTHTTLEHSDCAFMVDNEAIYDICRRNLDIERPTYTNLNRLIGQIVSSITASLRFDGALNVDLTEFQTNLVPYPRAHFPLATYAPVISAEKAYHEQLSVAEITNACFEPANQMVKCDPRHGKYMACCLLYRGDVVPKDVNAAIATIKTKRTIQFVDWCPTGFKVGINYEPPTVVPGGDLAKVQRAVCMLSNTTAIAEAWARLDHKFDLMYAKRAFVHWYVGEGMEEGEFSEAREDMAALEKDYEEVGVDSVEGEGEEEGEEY
UniProt P02550, sequence (P02554 whole entry, chain 2 of 2, further chain): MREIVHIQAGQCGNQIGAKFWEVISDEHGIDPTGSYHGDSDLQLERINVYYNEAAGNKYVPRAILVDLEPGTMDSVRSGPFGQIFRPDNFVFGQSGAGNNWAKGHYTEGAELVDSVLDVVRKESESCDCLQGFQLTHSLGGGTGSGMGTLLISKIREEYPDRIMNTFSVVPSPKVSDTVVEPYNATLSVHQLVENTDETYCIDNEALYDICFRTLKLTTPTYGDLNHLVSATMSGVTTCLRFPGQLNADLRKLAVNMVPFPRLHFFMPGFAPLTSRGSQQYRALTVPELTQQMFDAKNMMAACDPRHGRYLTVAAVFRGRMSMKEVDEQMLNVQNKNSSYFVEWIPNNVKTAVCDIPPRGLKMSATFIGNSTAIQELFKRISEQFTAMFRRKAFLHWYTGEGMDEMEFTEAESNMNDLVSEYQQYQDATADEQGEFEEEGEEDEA

For the substance “KIF1A(aa1-393)-LZ-strepII (from UniProt Q12756 1-393) (domain or fragment)”, the results for the decorated fraction of the kinesin sites on tubulin in assay [1] and in assay [2] were 74% and 32%, respectively.

Consider “KIF1A^P305L (KIF1A(aa1-393, P305L)-LZ-strepII) (from UniProt Q12756 1-393) (domain or fragment)”, for which the decorated fraction of the kinesin sites on tubulin is 9% in assay [3] and 25% in assay [2].
